What all share (settings): pH and temperature of Km assay not stated
Substrate in the series “purified protein”: O=[N+]([O-])c1ccc(O[C@H]2O[C@H](CO)[C@H](O)[C@H](O)[C@H]2O)cc1
Nature of the series: purified protein.

Substrate in series [1]: OC[C@H]1O[C@H](OC[C@H]2O[C@H](OC[C@H]3O[C@H](O[C@]4(CO)O[C@H](CO)[C@@H](O)[C@@H]4O)[C@H](O)[C@@H](O)[C@@H]3O)[C@H](O)[C@@H](O)[C@H]2O)[C@H](O)[C@@H](O)[C@H]1O
The series can be described thus: Lineweaver-Burk plot, hydrolysis. The class given is biochemical, Cucumis sativus.

Substrate in series [2]: OC[C@H]1O[C@H](OC[C@H]2O[C@H](O[C@]3(CO)O[C@H](CO)[C@@H](O)[C@@H]3O)[C@H](O)[C@@H](O)[C@@H]2O)[C@H](O)[C@@H](O)[C@H]1O
Nature of the series: Lineweaver-Burk plot, hydrolysis. The class given is biochemical, Cucumis sativus.

B1: CsAGA3 (Cucumis sativus) (protein)
chain: MTIKPAVRISDGKLIVKDRTILTGVPDNVIATSGSSSGPVEGVFLGAVFEEEQSRQVVSLGTLRDVRFMACFRFKLWWMAQKMGDKGKEIPLETQFLLLETKDGSHLESDDGNEENQIIYTVFLPLIEGSFRACLQGNGQDELELCLESGDVDTKASSFTHSLFIHAGTDPFDAISDAMKAVKLHLNTFRLRHEKKFPAIVDYFGWCTWDAFYHEVTQDGVEAGLESLTAGGVPPKFVIIDDGWQSVGGDPQEEKEEGDEKQPKQPPLLRLTAIRENSKFQKKEDPTEGIKNIVNIAKNKYGLKYVYVWHAITGYWGGVRTGVKDMEEYGSSMQYPKVSKGVFENEPIWKNDALALQGLGLMNPKNVYKFYNELHSYLASAGIDGVKVDAQSILETLGAGLGGRVELTRQYHQALDASVARNFPDNGIIACMSHHTDAVYCAKQTAVVRASDDFYPRDPVSHTIHIAAVAYNTVFLGEIMVPDWDMFHSLHSAAEYHASARAISGGPVYVSDAPGKHNFELLRKLVLPDGSVLRATLPGRPTRDCLFSDPARDGVSLLKIWNLNKFTGVIGIYNCQGAAWNSQERKNTFHDTNSDAITGYVKGRDVHAISKVAADPDWNGDCAFYRHLSGDLVTLPYNSALPVSLKVLEFDIFTISPIKVLAPGFSFAPIGLIDMYNSGGAIEGLKYEVKGGAKLVEVDGASEGIETASERVENRSSELVAIVHLEVKGCGRFGAYSSAKPRQCIVDSSVVEFGYDSESGLLTLGIDKLPEGDLKYHDVKIEL
notes: coding region in pAcHLT, baculovirus/Sf9 insect cells; 6xHis tag removed by thrombin
For the protein B1, the Km in the series “purified protein” is 1.24 ± 0.17 mM; in series [1], 3.26 ± 0.76 mM; in series [2], 22.47 ± 1.87 mM.

B2: CsAGA2 (Cucumis sativus) (protein)
chain: MTVTPKITVNDGNLVVHGKTILTGVPDNIVLTPGSGLGLVAGAFIGATASNSKSLHVFPVGVLEGTRFLCCFRFKLWWMTQRMGTSGRDIPFETQFLLMESQGNDGEDPDNSSTIYTVFLPLLEGQFRAALQGNEKNEMEICLESGDNTVETNQGLSLVYMHAGTNPFEVITQAVKAVEKHTQTFLHREKKKLPSFLDWFGWCTWDAFYTDVTAEGVVEGLQSLSDGGAPPKFLIIDDGWQQIEAKPKDADCVVQEGAQFASRLSGIKENHKFQKNGNNYDQVPGLKVVVDDAKKQHKVKFVYAWHALAGYWGGVKPASPGMEHYDSALAYPVQSPGMLGNQPDIVVDSLAVHGIGLVHPKKVFNFYNELHSYLASCGIDGVKVDVQNIIETLGAGHGGRVTLTRSYHQALEASIARNFSDNGCIACMCHNTDSLYSAKQTAVVRASDDYYPRDPASHTIHISSVAYNSLFLGEFMQPDWDMFHSLHPTAEYHGAARAIGGCAIYVSDKPGNHNFDLLKKLVLPDGSVLRAQLPGRPTRDSLFNDPARDGTSLLKIWNMNKCSGVVGVFNCQGAGWCRITKKTRIHDESPGTLTTSVRAADVDAISQVAGADWKGDTIVYAYRSGDLTRLPKGASVPVTLKVLEYDLFHISPLKDITSNISFAPIGLVDMFNIGGAVEQVDIQVVEPIPEFDGEVASELTCSLPDDRPPTATITMKARGCGRFGLYSSQRPLKCSVDKVGTDFVYDDVTGLVTFEIPIPTEEMYRWNIEIEV
notes: as for B1
For B2, the figures for the Km (in “purified protein”; in series [1]; in series [2]) were 2.21 ± 0.28 mM, 5.23 ± 1.23 mM and 30.4 ± 2.85 mM, respectively.

B3: CsAGA1 (Cucumis sativus) (protein)
chain: MTVGAGITISDANLTVLGNRVLSDVHNNITLTAAPGGGVMNGAFIGVQSDQIGSRRVFPIGKLIGLRFLCAFRFKLWWMTQRMGCSGQEIPFETQFLVVETRDGSNIAGNGEEGDAVYTVFLPILEGDFRAVLQGNDNNELEICLESGDPSVDGFEGSHLVFVGAGSDPFETITYAVKSVEKHLQTFAHRERKKMPDILNWFGWCTWDAFYTDVTSDGVKKGLESFENGGIPPKFVIIDDGWQSVAKDAASTDCKADNTANFANRLTHIKENYKFQKDGKEGERIENPALGLQHIVSYMKEKHATKYVYVWHAITGYWGGVSSGVKEMEQYESKIAYPVASPGVESNEPCDALNSISKTGLGLVNPEKVFNFYNEQHSYLASAGVDGVKVDVQNILETLGAGHGGRVKLARKYHQALEASISRNFQDNGIISCMSHNTDGLYSSKRNAVIRASDDFWPRDPASHTIHIASVAYNSLFLGEFMQPDWDMFHSLHPMAEYHGAARAVGGCAIYVSDKPGQHDFNLLKKLVLHDGSILRAKLPGRPTKDCLFADPARDGKSLLKIWNMNDLSGVVGVFNCQGAGWCKVGKKNLIHDENPDTITGVIRAKDVSYLWKIAGESWTGDAVIFSHLAGEVVYLPQDASMPITLKSREFDVFTVVPVKELANDIKFAPIGLMKMFNSGGAVKEMNHQPGSSNVSLKVRGSGPFGAYSSSKPKRVAVDSEEVEFIYDEGGLITIDLKVPEKELYLWDIRIEL
notes: as for B1
In the case of B3, the Michaelis-Menten constant (Km) came to 1.81 ± 0.39 mM in “purified protein”, 3.76 ± 0.89 mM in series [1] and 2.08 ± 0.51 mM in series [2].

The values are drawn from PMC7802950, “Characteristics and expression patterns of six α-galactosidases in cucumber (Cucumis sativus L.)” (PLoS ONE, 2021).
